Source: article PMC6617973, “RAF dimers control vascular permeability and cytoskeletal rearrangements at endothelial cell‐cell junctions” (The Febs Journal, 2019)

Biological target: T1, RAF1 (endogenous, pMECs) (mouse (endogenous in pMECs), UniProt Q99N57 1-648)
T1 construct: RAF1 kinase, endogenous in primary mouse endothelial cells; source: endogenous, pMEC lysate
Assay: co-IP; RAF1 immunoprecipitates from lysates of F/F and BRAFΔ/Δ pMEC monolayers; Protein G Sepharose with antibody, 4 °C overnight; 25 mM HEPES, 150 mM NaCl, 1 mM EGTA, 0.5% NP-40, 10% glycerol; immunoblot
Conditions: partners not purified

fold increase of the co-precipitate in BRAF-deficient against F/F pMECs: 3 fold
B1: RHO‐dependent kinase α (enzyme, mouse (endogenous in pMECs), UniProt P70336 1-1388, looked up)
chain: MSRPPPTGKMPGAPEAAPGDGAGAGRQRKLEALIRDPRSPINVESLLDGLNSLVLDLDFPALRKNKNIDNFLNRYEKIVKKIRGLQMKAEDYDVVKVIGRGAFGEVQLVRHKASQKVYAMKLLSKFEMIKRSDSAFFWEERDIMAFANSPWVVQLFCAFQDDRYLYMVMEYMPGGDLVNLMSNYDVPEKWAKFYTAEVVLALDAIHSMGLIHRDVKPDNMLLDKHGHLKLADFGTCMKMDETGMVHCDTAVGTPDYISPEVLKSQGGDGYYGRECDWWSVGVFLFEMLVGDTPFYADSLVGTYSKIMDHKNSLCFPEDTEISKHAKNLICAFLTDREVRLGRNGVEEIKQHPFFKNDQWNWDNIRETAAPVVPELSSDIDSSNFDDIEDDKGDVETFPIPKAFVGNQLPFIGFTYFRENLLLSDSPPCRENDAIQTRKSEESQEIQKKLYALEEHLSSEVQAKEELEQKCKSINTRLEKTAKELEEEITLRKSVESTLRQLEREKALLQHKNAEYQRKADHEADKKRNLENDVNSLKDQLEDLKKRNQSSQISTEKVNQLQKQLDEANALLRTESDTAARLRKTQAESSKQIQQLESNNRDLQDKNCLLETAKLKLEKEFINLQSALESERRDRTHGSEIINDLQGRISGLEEDLKTGKALLAKVELEKRQLQEKLTDLEKEKSNMEIDMTYQLKVIQQSLEQEEAEHKTTKARLADKNKIYESIEEAKSEAMKEMEKKLLEERSLKQKVENLLLEAEKRCSILDCDLKQSQQKLNELLKQKDVLNEDVRNLTLKIEQETQKRCLMQNDLKMQTQQVNTLKMSEKQIKQENNHLMEMKMNLEKQNTELRKERQDADGQMKELQDQLEAEQYFSTLYKTQVRELKEENEEKTKLCKELQQKKQDLQDERDSLAAQLEITLTKADSEQLARSIAEEQYSDLEKEKIMKELEIKEMMARHKQELTEKDTTIASLEETNRTLTSDVANLANEKEELNNKLKDSQEQLSKLKDEEMSAAAIKAQFEKQLLNERTLKTQAVNKLAEIMNRKEPVKRGSDTDVRRKEKENRKLHMELKSEREKLTQQMIKYQKELNEMQAQIAEESQIRIELQMTLDSKDSDIEQLRSQLQALHIGMDSSSIGSGPGDAEPDDGFPESRLEGWLSLPVRNNTKKFGWVKKYVIVSSKKILFYDSEQDKEQSNPYMVLDIDKLFHVRPVTQTDVYRADAKEIPRIFQILYANEGESKKEPEFPVEPVGEKSNYICHKGHEFIPTLYHFPTNCEACMKPLWHMFKPPPALECRRCHIKCHKDHMDKKEEIIAPCKVYYDISSAKNLLLLANSTEEQQKWVSRLVKKIPKKPPAPDPFARSSPRTSMKIQQNQSIRRPSRQLAPNKPS
notes: ROKalpha (ROCK2), endogenous in primary mouse endothelial cells; also called ROKα; ROK; source: endogenous, pMEC lysate
